Measured values from article PMC9482650, “Quantitative fragmentomics allow affinity mapping of interactomes” (Nature Communications, 2022).

Legend:
Test in all cases: holdup assay
Set-up in all cases: key: below the threshold = too weak to quantify, mostly under pKd 3.1 to 4
PTPN3, P26045 = biological target: PTPN3, P26045
TJP3_3, O95049 = biological target: T1, TJP3_3, O95049
T1 sequence (O95049 375-456, limits assumed, looked up): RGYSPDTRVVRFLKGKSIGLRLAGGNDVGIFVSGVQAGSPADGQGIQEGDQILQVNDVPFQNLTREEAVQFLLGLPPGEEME

NHERF4_2, Q86UT5 = biological target: NHERF4_2, Q86UT5
GRASP, Q7Z6J2 = biological target: GRASP, Q7Z6J2
DFNB31_1, Q9P202 = biological target: T2, DFNB31_1, Q9P202
T2 sequence (Q9P202 135-233, limits assumed, looked up): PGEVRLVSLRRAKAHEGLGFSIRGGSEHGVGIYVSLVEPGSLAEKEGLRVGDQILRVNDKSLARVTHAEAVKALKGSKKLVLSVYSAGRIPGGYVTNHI

SHANK1, Q9Y566 = biological target: T3, SHANK1, Q9Y566
T3 sequence (Q9Y566 658-767, limits assumed, looked up): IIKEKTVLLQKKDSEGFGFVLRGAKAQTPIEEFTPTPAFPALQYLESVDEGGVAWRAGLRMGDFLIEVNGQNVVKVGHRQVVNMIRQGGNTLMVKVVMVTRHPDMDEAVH

DLG3_2, Q92796 = biological target: T4, DLG3_2, Q92796
T4 sequence (Q92796 221-321, limits assumed, looked up): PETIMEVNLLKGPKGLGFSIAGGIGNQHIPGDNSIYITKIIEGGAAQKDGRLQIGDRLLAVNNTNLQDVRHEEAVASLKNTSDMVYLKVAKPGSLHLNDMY

PTPN13_1, Q12923 = biological target: T5, PTPN13_1, Q12923
T5 sequence (Q12923 1088-1188, limits assumed, looked up): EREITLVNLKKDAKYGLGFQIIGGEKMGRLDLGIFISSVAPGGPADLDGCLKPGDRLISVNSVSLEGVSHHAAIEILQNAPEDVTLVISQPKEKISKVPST

ARHGAP21, Q5T5U3 = biological target: T6, ARHGAP21, Q5T5U3
T6 sequence (Q5T5U3 45-169, limits assumed, looked up): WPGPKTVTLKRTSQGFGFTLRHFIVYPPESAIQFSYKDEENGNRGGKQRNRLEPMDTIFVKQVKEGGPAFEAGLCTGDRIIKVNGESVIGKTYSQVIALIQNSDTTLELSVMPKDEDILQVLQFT

DLG2_2, Q15700 = biological target: DLG2_2, Q15700
MPP2, Q14168 = biological target: T7, MPP2, Q14168
T7 sequence (Q14168 180-250, limits assumed, looked up): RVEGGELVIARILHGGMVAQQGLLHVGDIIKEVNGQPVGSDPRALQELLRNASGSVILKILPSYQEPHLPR

DLG3_3, Q92796 = biological target: T8, DLG3_3, Q92796
T8 sequence (Q92796 374-475, limits assumed, looked up): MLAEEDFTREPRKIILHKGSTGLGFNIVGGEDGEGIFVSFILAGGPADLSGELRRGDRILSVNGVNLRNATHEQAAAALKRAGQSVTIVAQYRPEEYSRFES

SCRIB_2, Q14160 = biological target: SCRIB_2, Q14160
LRRC7, Q96NW7 = biological target: T9, LRRC7, Q96NW7
T9 sequence (Q96NW7 1440-1537, limits assumed, looked up): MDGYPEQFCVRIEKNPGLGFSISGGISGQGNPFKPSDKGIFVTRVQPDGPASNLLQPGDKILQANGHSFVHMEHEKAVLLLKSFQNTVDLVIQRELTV

SCRIB_3, Q14160 = biological target: SCRIB_3, Q14160
Inadl_6, Q8NI35 = biological target: Inadl_6, Q8NI35
SYNJ2BP, P57105 = biological target: T10, SYNJ2BP, P57105
T10 sequence (P57105 8-110, limits assumed, looked up): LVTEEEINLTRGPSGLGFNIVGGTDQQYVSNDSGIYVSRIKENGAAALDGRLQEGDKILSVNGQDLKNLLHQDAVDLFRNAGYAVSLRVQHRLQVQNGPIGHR

SIPA1L2, Q9P2F8 = biological target: T11, SIPA1L2, Q9P2F8
T11 sequence (Q9P2F8 945-1036, limits assumed, looked up): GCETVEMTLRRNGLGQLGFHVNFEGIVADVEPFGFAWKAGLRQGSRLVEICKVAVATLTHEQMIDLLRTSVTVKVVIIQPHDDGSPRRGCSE

LNX1_2, Q8TBB1 = biological target: LNX1_2, Q8TBB1
PDZRN4_1, Q6ZMN7 = biological target: PDZRN4_1, Q6ZMN7
SNTG2, Q9NY99 = biological target: T12, SNTG2, Q9NY99
T12 sequence (Q9NY99 68-166, limits assumed, looked up): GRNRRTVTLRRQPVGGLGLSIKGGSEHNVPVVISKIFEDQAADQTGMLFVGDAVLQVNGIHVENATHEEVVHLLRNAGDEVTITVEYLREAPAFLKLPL

DLG4_2, P78352 = biological target: DLG4_2, P78352
AHNAK1, Q09666 = biological target: AHNAK1, Q09666
SCRIB_1, Q14160 = biological target: SCRIB_1, Q14160
NHERF2_2, Q15599 = biological target: NHERF2_2, Q15599
FRMPD3, Q5JV73 = biological target: FRMPD3, Q5JV73
[1] = plain residues with an end cap or a label only (N-terminal biotin on a linker: none)
[2] = plain residues with an end cap or a label only (N-terminal biotin on a linker: ttds)
[3] = plain residues with an end cap or a label only (N-terminal biotin on a linker: ado-ado)

DLG2_2, Q15700, sequence (Q15700 189-283): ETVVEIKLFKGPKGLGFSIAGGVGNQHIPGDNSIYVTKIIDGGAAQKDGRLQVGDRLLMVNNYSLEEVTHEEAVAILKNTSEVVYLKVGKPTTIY
Inadl_6, Q8NI35, sequence (Q8NI35 1058-1167): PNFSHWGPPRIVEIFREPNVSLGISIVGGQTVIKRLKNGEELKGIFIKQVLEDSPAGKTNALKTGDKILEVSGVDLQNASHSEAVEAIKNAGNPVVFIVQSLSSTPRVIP
AHNAK1, Q09666, sequence (Q09666 4-100): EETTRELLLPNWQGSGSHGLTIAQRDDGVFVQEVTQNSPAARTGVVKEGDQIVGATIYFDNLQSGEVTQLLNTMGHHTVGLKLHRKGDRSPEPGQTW
PTPN3, P26045, sequence (P26045 505-587): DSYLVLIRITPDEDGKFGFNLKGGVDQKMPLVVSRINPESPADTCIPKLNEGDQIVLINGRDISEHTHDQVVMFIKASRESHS
SCRIB_3, Q14160, sequence (Q14160 999-1103): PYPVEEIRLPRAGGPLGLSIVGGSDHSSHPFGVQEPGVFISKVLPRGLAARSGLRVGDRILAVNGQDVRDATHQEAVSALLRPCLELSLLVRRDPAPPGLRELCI
SCRIB_1, Q14160, sequence (Q14160 718-814): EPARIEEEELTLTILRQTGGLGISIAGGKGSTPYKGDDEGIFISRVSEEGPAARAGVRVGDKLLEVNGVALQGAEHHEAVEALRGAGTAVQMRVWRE
GRASP, Q7Z6J2, sequence (Q7Z6J2 96-193): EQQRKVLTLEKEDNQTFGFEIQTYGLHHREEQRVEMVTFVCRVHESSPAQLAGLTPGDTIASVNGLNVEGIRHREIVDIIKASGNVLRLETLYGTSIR
DLG4_2, P78352, sequence (P78352 155-259): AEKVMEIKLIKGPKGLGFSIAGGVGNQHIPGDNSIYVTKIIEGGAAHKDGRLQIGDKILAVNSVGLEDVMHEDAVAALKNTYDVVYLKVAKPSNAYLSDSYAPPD
NHERF4_2, Q86UT5, sequence (Q86UT5 220-308): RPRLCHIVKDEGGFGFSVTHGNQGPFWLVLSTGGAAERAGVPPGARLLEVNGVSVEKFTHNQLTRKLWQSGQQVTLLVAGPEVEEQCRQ
SCRIB_2, Q14160, sequence (Q14160 857-960): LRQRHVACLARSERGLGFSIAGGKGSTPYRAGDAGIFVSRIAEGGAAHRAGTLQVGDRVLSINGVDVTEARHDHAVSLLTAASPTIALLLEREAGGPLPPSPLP
NHERF2_2, Q15599, sequence (Q15599 142-238): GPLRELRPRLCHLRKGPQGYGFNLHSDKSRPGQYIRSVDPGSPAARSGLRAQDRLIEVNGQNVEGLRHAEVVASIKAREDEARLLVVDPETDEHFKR
PDZRN4_1, Q6ZMN7, sequence (Q6ZMN7 213-318): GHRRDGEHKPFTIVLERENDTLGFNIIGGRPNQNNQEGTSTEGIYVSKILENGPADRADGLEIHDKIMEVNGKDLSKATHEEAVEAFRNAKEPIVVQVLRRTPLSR
FRMPD3, Q5JV73, sequence (Q5JV73 12-100): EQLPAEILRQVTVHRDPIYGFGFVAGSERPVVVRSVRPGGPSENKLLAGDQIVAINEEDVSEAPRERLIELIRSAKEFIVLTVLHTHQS
LNX1_2, Q8TBB1, sequence (Q8TBB1 371-470): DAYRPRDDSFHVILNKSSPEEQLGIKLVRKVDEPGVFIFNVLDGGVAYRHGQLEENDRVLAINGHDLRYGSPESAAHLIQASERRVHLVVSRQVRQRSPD

DSKPPLPPDEWV [MERS-E, K9N5R3]
pKd (PTPN3, P26045; [1]): 3.87 | pKd (TJP3_3, O95049; [1]): 4.83 | pKd (NHERF4_2, Q86UT5; [1]): below the threshold | pKd (GRASP, Q7Z6J2; [1]): below the threshold | pKd (DFNB31_1, Q9P202; [1]): 3.61 | pKd (SHANK1, Q9Y566; [1]): below the threshold | pKd (DLG3_2, Q92796; [1]): 3.96 | pKd (PTPN13_1, Q12923; [1]): below the threshold | pKd (ARHGAP21, Q5T5U3; [1]): 3.76 | pKd (DLG2_2, Q15700; [1]): below the threshold | pKd (MPP2, Q14168; [1]): below the threshold | pKd (DLG3_3, Q92796; [1]): 3.58 | pKd (SCRIB_2, Q14160; [1]): 3.58 | pKd (LRRC7, Q96NW7; [1]): 4.4 | pKd (SCRIB_3, Q14160; [1]): 3.9 | pKd (Inadl_6, Q8NI35; [1]): 3.81 | pKd (SYNJ2BP, P57105; [1]): 3.73 | pKd (SIPA1L2, Q9P2F8; [1]): below the threshold | pKd (LNX1_2, Q8TBB1; [1]): below the threshold | pKd (PDZRN4_1, Q6ZMN7; [1]): 3.49 | pKd (SNTG2, Q9NY99; [1]): 3.59 | pKd (DLG4_2, P78352; [1]): 3.59 | pKd (AHNAK1, Q09666; [1]): below the threshold | pKd (SCRIB_1, Q14160; [1]): 4.52 | pKd (NHERF2_2, Q15599; [1]): below the threshold | pKd (FRMPD3, Q5JV73; [1]): 4.17

HRTCYLVTQL [ASIC3, Q9UHC3]
pKd (PTPN3, P26045; [2]): 4.48 | pKd (TJP3_3, O95049; [2]): 3.43 | pKd (NHERF4_2, Q86UT5; [2]): 3.21 | pKd (GRASP, Q7Z6J2; [2]): 4.77 | pKd (DFNB31_1, Q9P202; [2]): 3.67 | pKd (SHANK1, Q9Y566; [2]): 4.91 | pKd (DLG3_2, Q92796; [2]): 3.97 | pKd (PTPN13_1, Q12923; [2]): 3.36 | pKd (ARHGAP21, Q5T5U3; [2]): 3.47 | pKd (DLG2_2, Q15700; [2]): 3.93 | pKd (MPP2, Q14168; [2]): below the threshold | pKd (DLG3_3, Q92796; [2]): 3.49 | pKd (SCRIB_2, Q14160; [2]): 3.73 | pKd (LRRC7, Q96NW7; [2]): 4.04 | pKd (SCRIB_3, Q14160; [2]): 4.85 | pKd (Inadl_6, Q8NI35; [2]): 4.23 | pKd (SYNJ2BP, P57105; [2]): 4.72 | pKd (SIPA1L2, Q9P2F8; [2]): below the threshold | pKd (LNX1_2, Q8TBB1; [2]): 3.46 | pKd (PDZRN4_1, Q6ZMN7; [2]): 4.24 | pKd (SNTG2, Q9NY99; [2]): 3.75 | pKd (DLG4_2, P78352; [2]): 3.97 | pKd (AHNAK1, Q09666; [2]): 3.33 | pKd (SCRIB_1, Q14160; [2]): 5.54 | pKd (NHERF2_2, Q15599; [2]): 4.5 | pKd (FRMPD3, Q5JV73; [2]): 3.53

LHLHGTGIQV [EPHA7, Q15375]
pKd (PTPN3, P26045; [3]): 4.06 | pKd (TJP3_3, O95049; [3]): below the threshold | pKd (NHERF4_2, Q86UT5; [3]): 3.54 | pKd (GRASP, Q7Z6J2; [3]): below the threshold | pKd (DFNB31_1, Q9P202; [3]): 3.53 | pKd (SHANK1, Q9Y566; [3]): below the threshold | pKd (DLG3_2, Q92796; [3]): below the threshold | pKd (PTPN13_1, Q12923; [3]): below the threshold | pKd (ARHGAP21, Q5T5U3; [3]): 3.73 | pKd (DLG2_2, Q15700; [3]): below the threshold | pKd (MPP2, Q14168; [3]): below the threshold | pKd (DLG3_3, Q92796; [3]): 3.51 | pKd (SCRIB_2, Q14160; [3]): below the threshold | pKd (LRRC7, Q96NW7; [3]): below the threshold | pKd (SCRIB_3, Q14160; [3]): 3.53 | pKd (Inadl_6, Q8NI35; [3]): below the threshold | pKd (SYNJ2BP, P57105; [3]): 3.7 | pKd (SIPA1L2, Q9P2F8; [3]): below the threshold | pKd (LNX1_2, Q8TBB1; [3]): 4.37 | pKd (PDZRN4_1, Q6ZMN7; [3]): 3.57 | pKd (SNTG2, Q9NY99; [3]): below the threshold | pKd (DLG4_2, P78352; [3]): 3.75 | pKd (AHNAK1, Q09666; [3]): below the threshold | pKd (SCRIB_1, Q14160; [3]): below the threshold | pKd (NHERF2_2, Q15599; [3]): below the threshold | pKd (FRMPD3, Q5JV73; [3]): 3.5
